Measurements taken from the supplement of paper PMC10065799, “High-throughput profiling of sequence recognition by tyrosine kinases and SH2 domains using bacterial peptide display” (eLife, 2023).

Experiments:
[1] = target: SHP2-C SH2; experiment: SH2 binding enrichment of the phosphorylated peptide, bacterial display (enrichment ratio); higher = better substrate or ligand; peptides without Tyr show the background
[2] = target: Grb2 SH2 (UniProt P62993); experiment: as above
[3] = target: c-Src SH2; experiment: as above
[4] = target: Hck (UniProt P08631); experiment: phosphorylation enrichment, bacterial display (enrichment ratio); higher = better substrate or ligand; peptides without Tyr show the background
[5] = target: FGFR1 (UniProt P11362); experiment: as above
Sequence of FGFR1 (P11362 whole entry, looked up): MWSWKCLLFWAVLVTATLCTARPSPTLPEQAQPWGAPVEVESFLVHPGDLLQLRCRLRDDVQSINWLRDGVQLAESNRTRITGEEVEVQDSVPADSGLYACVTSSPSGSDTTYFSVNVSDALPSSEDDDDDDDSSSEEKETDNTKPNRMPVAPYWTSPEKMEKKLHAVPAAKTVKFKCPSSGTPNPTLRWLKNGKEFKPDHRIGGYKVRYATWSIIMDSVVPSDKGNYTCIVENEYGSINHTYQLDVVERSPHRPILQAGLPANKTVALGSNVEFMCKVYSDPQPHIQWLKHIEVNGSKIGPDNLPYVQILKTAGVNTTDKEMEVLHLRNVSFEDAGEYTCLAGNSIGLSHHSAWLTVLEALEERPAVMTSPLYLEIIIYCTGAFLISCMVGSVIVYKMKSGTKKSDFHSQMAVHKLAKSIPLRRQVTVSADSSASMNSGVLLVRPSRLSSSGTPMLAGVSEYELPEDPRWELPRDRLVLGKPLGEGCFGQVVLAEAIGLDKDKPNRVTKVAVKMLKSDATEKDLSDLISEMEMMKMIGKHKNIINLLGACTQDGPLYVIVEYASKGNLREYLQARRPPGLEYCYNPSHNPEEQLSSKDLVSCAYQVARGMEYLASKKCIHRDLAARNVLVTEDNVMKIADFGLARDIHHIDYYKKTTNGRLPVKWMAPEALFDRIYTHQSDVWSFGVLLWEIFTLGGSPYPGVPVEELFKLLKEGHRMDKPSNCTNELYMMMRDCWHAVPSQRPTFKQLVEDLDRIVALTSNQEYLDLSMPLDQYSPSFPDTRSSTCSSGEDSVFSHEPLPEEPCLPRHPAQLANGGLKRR

[6] = test system: c-Src; experiment: as above
[7] = target: EPHB1 (UniProt P54762); experiment: as above
Sequence of EPHB1 (P54762 whole entry, looked up): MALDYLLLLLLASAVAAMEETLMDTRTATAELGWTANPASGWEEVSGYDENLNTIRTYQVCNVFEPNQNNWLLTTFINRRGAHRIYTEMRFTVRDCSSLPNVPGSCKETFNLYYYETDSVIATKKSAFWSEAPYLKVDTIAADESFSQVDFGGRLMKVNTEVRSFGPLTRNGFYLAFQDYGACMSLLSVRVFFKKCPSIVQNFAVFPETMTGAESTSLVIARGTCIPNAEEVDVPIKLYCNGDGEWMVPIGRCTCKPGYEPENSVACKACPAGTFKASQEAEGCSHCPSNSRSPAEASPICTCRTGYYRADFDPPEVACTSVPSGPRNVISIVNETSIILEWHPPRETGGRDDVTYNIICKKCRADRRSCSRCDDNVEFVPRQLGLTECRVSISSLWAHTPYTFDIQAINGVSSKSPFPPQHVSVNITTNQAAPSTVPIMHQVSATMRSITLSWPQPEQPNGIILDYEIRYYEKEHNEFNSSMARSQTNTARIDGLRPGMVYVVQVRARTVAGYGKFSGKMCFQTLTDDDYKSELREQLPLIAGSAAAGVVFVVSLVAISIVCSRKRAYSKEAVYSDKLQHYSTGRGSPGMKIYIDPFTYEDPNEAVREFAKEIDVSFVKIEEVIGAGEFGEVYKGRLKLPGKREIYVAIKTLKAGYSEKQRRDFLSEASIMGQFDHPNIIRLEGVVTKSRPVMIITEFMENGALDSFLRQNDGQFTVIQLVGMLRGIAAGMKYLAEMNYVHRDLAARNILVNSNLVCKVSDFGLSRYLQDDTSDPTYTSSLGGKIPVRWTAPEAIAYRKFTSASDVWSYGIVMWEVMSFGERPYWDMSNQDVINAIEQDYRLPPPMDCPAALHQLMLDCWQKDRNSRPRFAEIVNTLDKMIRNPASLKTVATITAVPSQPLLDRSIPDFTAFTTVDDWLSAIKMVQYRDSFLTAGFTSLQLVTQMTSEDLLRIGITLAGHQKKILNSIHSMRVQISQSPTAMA

[8] = test system: c-Abl (mouse); experiment: as above
[9] = target: Jak2 (UniProt O60674); experiment: as above
[10] = test system: AncSZ; experiment: as above
[11] = target: MERTK (UniProt Q12866); experiment: as above
Sequence of MERTK (Q12866 whole entry, looked up): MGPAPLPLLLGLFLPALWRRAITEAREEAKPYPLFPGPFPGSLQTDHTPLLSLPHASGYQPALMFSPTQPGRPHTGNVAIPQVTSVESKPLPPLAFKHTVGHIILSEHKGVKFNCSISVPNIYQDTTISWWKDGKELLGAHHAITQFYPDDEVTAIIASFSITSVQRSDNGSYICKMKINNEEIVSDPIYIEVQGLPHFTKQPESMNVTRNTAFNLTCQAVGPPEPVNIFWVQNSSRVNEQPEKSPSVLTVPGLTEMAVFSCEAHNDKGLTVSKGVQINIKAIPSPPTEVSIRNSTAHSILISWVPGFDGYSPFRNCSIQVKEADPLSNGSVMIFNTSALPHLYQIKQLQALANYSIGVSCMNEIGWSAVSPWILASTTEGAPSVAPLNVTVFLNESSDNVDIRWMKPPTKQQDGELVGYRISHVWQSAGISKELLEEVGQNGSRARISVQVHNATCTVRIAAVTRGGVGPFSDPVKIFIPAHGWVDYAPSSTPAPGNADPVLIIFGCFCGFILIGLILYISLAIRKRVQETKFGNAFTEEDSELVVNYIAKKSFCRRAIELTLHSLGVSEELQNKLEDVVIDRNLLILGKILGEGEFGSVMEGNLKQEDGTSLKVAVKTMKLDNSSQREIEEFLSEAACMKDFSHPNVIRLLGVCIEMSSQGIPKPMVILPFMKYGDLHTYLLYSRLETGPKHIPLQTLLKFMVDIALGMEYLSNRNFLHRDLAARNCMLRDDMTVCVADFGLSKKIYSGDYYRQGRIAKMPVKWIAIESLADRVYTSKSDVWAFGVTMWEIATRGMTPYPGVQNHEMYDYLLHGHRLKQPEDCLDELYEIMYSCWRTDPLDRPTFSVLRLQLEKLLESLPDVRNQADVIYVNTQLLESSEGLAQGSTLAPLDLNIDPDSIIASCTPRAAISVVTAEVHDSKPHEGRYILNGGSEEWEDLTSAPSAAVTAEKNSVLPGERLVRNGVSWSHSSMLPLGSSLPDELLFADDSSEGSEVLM

[12] = target: FGFR3 (UniProt P22607); experiment: as above
Sequence of FGFR3 (P22607 whole entry, looked up): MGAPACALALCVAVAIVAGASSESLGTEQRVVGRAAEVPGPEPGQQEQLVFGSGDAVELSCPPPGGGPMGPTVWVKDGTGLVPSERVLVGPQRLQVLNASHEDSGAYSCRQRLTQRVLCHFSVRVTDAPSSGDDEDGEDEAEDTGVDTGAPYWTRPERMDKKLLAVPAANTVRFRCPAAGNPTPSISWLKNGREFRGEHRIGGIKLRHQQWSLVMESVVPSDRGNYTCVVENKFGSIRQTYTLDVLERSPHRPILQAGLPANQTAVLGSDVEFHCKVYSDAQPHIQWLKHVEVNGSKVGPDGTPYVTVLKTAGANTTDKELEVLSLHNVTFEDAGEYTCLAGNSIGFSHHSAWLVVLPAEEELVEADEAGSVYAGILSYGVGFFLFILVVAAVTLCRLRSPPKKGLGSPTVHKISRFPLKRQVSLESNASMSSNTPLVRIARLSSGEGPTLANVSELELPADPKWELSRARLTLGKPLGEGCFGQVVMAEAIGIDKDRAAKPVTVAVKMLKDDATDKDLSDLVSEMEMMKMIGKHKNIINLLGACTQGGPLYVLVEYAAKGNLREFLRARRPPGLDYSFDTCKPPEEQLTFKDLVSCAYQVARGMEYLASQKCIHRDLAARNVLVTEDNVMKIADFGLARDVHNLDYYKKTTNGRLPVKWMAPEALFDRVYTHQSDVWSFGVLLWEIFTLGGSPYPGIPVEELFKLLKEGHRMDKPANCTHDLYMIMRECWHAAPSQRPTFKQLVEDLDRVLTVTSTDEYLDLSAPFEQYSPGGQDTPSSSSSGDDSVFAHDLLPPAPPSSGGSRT

[13] = target: EPHB2 (UniProt P29323); experiment: as above
[14] = target: Fyn (UniProt P06241); experiment: as above
Sequence of Fyn (P06241 whole entry, looked up): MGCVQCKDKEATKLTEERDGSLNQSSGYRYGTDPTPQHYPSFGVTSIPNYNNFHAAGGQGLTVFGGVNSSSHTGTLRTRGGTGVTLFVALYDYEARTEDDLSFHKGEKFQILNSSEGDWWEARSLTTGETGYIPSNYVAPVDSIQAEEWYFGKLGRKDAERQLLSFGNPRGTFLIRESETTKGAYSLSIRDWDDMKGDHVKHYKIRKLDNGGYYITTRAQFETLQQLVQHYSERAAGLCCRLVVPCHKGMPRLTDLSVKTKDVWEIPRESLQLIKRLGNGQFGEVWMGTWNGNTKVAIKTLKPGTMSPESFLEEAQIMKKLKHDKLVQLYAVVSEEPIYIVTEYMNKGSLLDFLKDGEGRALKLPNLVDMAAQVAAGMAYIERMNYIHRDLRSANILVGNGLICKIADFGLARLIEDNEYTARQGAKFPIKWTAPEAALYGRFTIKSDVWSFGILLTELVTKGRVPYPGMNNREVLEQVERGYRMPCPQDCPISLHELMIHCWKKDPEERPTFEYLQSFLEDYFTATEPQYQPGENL

[15] = target: Fes (UniProt P07332); experiment: as above
Sequence of Fes (P07332 whole entry, looked up): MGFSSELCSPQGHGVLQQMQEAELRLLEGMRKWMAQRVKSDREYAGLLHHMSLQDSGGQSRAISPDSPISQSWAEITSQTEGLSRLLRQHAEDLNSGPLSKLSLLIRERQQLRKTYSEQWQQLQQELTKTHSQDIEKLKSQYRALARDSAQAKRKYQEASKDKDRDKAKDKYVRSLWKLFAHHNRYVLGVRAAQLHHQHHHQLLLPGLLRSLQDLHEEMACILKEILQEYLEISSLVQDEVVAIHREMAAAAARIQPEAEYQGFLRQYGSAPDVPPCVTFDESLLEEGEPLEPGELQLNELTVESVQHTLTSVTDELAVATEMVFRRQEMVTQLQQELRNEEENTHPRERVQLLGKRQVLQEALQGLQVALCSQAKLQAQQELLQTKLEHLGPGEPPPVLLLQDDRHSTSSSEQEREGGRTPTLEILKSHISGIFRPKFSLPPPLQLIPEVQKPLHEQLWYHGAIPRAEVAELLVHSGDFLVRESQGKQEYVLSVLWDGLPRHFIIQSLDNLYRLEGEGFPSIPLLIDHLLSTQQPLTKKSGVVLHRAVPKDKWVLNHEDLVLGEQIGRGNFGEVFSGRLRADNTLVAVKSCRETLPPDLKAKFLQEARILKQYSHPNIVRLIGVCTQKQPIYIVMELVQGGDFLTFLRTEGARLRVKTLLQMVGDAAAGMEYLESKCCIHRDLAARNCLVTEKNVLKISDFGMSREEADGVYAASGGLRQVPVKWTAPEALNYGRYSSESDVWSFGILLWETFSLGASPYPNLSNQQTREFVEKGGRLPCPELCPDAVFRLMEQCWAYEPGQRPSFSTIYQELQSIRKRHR

[16] = test system: Fer (mouse); experiment: as above
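For SH2 binding enrichment of the phosphorylated peptide, bacterial display in this document: peptide library displayed on the E. coli surface as eCPX fusions, selected cells deep-sequenced, score is each peptide's frequency after selection divided by its frequency in the input.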
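For phosphorylation enrichment, bacterial display in this document: 11-residue human phosphosite peptides and single-mutation variants displayed on the E. coli surface, counted by deep sequencing, each peptide's frequency after selection divided by its frequency in the unselected input library; frequency after pTyr selection over input frequency; kinase dosed for 20-30% of maximal phosphorylation in three min.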

SH2 binding enrichment [1] | SH2 binding enrichment [2] | SH2 binding enrichment [3] | Sequence | phosphorylation enrichment [4] | phosphorylation enrichment [5] | phosphorylation enrichment [6] | phosphorylation enrichment [7] | phosphorylation enrichment [8] | phosphorylation enrichment [9] | phosphorylation enrichment [10] | phosphorylation enrichment [11] | phosphorylation enrichment [12] | phosphorylation enrichment [13] | phosphorylation enrichment [14] | phosphorylation enrichment [15] | phosphorylation enrichment [16]
1 | 0.741 | 0.924 | DVYVSYDYGKS [SORL1_Y139] | 4.33 | 6.8 | 5.25 | 2.95 | 1.03 | 0.795 | 1.45 | 4.1 | 4.03 | 5.62 | 7.46 | 0.98 | 2.42
0.974 | 1.26 | 0.64 | EILLSYLRTGF [TGM1_Y365_YF] | 0.41 | 0.433 | 0.394 | 0.418 | 0.492 | 0.981 | 1.05 | 0.387 | 0.619 | 0.967 | 0.401 | 0.943 | 0.411
0.616 | 0.654 | 0.417 | LTFDEYRNNSQ [ANXA3_Y216_I219N] | 0.443 | 0.573 | 0.753 | 0.431 | 1.13 | 1.38 | 0.762 | 0.4 | 0.632 | 0.682 | 0.675 | 1.24 | 0.553
1.07 | 1.12 | 0.795 | FTFNSYFMHWV [IGHV1-46_Y51_T49N_YF] | 0.693 | 1.51 | 0.555 | 0.726 | 0.962 | 6.35 | 1.55 | 1.04 | 1.37 | 0.761 | 0.608 | 1.59 | 1.62
1.25 | 1.45 | 1.05 | LLKAGYHGVLR [TTPA_Y100] | 0.453 | 0.646 | 0.906 | 0.686 | 0.926 | 0.903 | 0.964 | 0.631 | 0.679 | 0.562 | 0.693 | 1.35 | 0.671
0.451 | 0.781 | 0.451 | DTYDPYLDIAL [USP36_Y268_V271I] | 1.06 | 0.901 | 2.42 | 1.03 | 0.982 | 1.32 | 1.6 | 0.611 | 0.968 | 0.892 | 1.47 | 1.55 | 0.721
0.715 | 0.653 | 0.705 | VYYGSYSCPYG [NKAP_Y104_R106C] | 4.99 | 4.04 | 6.91 | 2.45 | 4.15 | 2.28 | 2.87 | 4.18 | 2.87 | 3.08 | 8.17 | 1.47 | 1.59
0.686 | 0.897 | 0.51 | GFSDPYVKAFL [SYT3_Y470_S474F] | 0.466 | 0.535 | 0.497 | 0.595 | 0.772 | 0.898 | 0.693 | 0.472 | 0.729 | 0.577 | 0.481 | 1 | 0.565
0.683 | 0.738 | 0.479 | HNLNYYKKTTN [FGFR3_Y648_D646N] | 0.258 | 0.468 | 0.429 | 0.337 | 0.554 | 0.648 | 0.791 | 0.479 | 0.531 | 0.361 | 0.491 | 0.507 | 0.461
0.652 | 0.959 | 0.56 | MIAIRYSHSRR [ACOXL_Y260_T255M] | 0.43 | 0.377 | 0.426 | 0.539 | 0.473 | 0.434 | 0.875 | 0.353 | 0.518 | 0.465 | 0.444 | 0.487 | 0.324
0.962 | 0.842 | 0.541 | RVQQIYSDSDL [MIB1_Y376] | 3.68 | 0.574 | 5.32 | 1.45 | 1.31 | 0.902 | 1.32 | 4.58 | 0.852 | 0.837 | 4.75 | 1.32 | 3.92
0.838 | 0.892 | 0.571 | RQQEDYLLFKQ [RARRES1_Y159_YF] | 1.16 | 1.45 | 0.576 | 1.11 | 0.924 | 1.39 | 1.57 | 0.516 | 1.28 | 0.978 | 0.68 | 1.85 | 0.637
0.759 | 0.842 | 0.409 | AARVSYRLASG [DCHS1_Y1582] | 0.378 | 0.354 | 0.382 | 0.352 | 0.423 | 0.428 | 0.554 | 0.422 | 0.392 | 0.49 | 0.315 | 0.588 | 0.51
0.798 | 0.909 | 0.532 | EVVGRYSVHFA [MLH1_Y183_N187Y_YF] | 0.504 | 0.529 | 0.436 | 0.612 | 0.531 | 0.692 | 0.92 | 0.448 | 0.676 | 0.49 | 0.579 | 0.978 | 0.424
0.475 | 0.783 | 0.561 | EVASVYESFQP [MAVS_Y92_Q93E_YF] | 8.64 | 0.668 | 8.96 | 1.1 | 1.56 | 1.65 | 1.91 | 3.2 | 0.852 | 1.01 | 11.2 | 1.31 | 14
0.98 | 1.03 | 0.632 | VNFDFYTVNLG [GFPT1_Y367_D366Y_YF] | 1.81 | 0.593 | 2.27 | 0.804 | 0.762 | 1.23 | 1.29 | 1.97 | 0.75 | 0.772 | 3.26 | 1.33 | 0.758
0.797 | 0.927 | 0.971 | PVADPYDQSFE [MAPK14_Y323] | 0.989 | 0.941 | 0.982 | 0.695 | 2.38 | 2.29 | 1.66 | 0.894 | 0.896 | 0.632 | 0.828 | 1.86 | 0.759
0.64 | 1.25 | 0.693 | MSSLFYANALF [HOXB7_Y6_T9A_YF] | 0.705 | 0.58 | 0.975 | 0.764 | 0.696 | 1.24 | 0.975 | 1.29 | 0.743 | 0.755 | 0.762 | 1.21 | 1.78
0.622 | 0.944 | 0.632 | PSARTYCFKQE [KLHDC9_Y175_YF] | 0.413 | 0.469 | 0.494 | 0.386 | 0.491 | 0.624 | 0.743 | 0.429 | 0.571 | 0.595 | 0.622 | 0.802 | 0.415
0.829 | 0.972 | 0.622 | KSVLVYRNGDP [DCDC2_Y22] | 0.405 | 0.362 | 0.4 | 0.431 | 0.446 | 0.55 | 0.539 | 0.355 | 0.449 | 0.401 | 0.426 | 0.617 | 0.435
1.37 | 1.58 | 1.02 | SLFQFYFQQKG [CHKB_Y381_R377L] | 0.488 | 0.521 | 0.425 | 0.657 | 0.932 | 1.43 | 1.35 | 0.403 | 0.833 | 0.568 | 0.397 | 1.42 | 0.612
0.619 | 0.728 | 0.431 | FFTEEYVRAHP [DOCK2_Y1555_D1558A] | 0.599 | 0.556 | 0.485 | 0.66 | 1.01 | 1.07 | 1.54 | 0.397 | 0.944 | 0.664 | 0.697 | 1.32 | 0.553
0.448 | 0.861 | 0.401 | ADDSYYTARSA [ZAP70_Y493] | 1.12 | 0.773 | 0.7 | 0.484 | 0.542 | 0.597 | 0.932 | 0.634 | 0.754 | 0.603 | 0.623 | 0.706 | 0.518
0.738 | 0.982 | 0.58 | NVQIVYKPVDL [MAPT_Y627_S622N] | 0.477 | 0.532 | 0.415 | 0.507 | 0.723 | 0.796 | 0.955 | 0.354 | 0.648 | 0.492 | 0.414 | 0.903 | 0.502
0.66 | 0.583 | 0.57 | FVSIVCNDSGE [TSC2_Y1650_Y1650C] | 0.537 | 0.534 | 0.478 | 0.644 | 0.767 | 1.18 | 1.12 | 0.464 | 0.921 | 0.646 | 0.476 | 1.21 | 0.613
0.724 | 0.82 | 0.637 | AKAFIYASHIV [ZNF573_Y229_G224A] | 0.842 | 0.561 | 1.53 | 0.7 | 1.44 | 0.908 | 0.962 | 0.501 | 0.965 | 0.771 | 1 | 1.08 | 1.57
0.548 | 1.92 | 0.786 | LINPKYSVEEE [PCDH19_Y27_L25P] | 0.55 | 0.753 | 0.608 | 1.06 | 1.39 | 1.65 | 1.8 | 0.836 | 1.36 | 0.986 | 0.797 | 2.28 | 0.977
0.444 | 0.969 | 0.58 | RDMNACIRPSP [MMAA_Y207_Y207C] | 0.798 | 0.934 | 0.375 | 1.06 | 0.565 | 0.581 | 1.12 | 0.62 | 1.03 | 1.07 | 0.773 | 1.29 | 0.571
0.657 | 0.995 | 0.441 | FTDPFYDFEIE [ZC3H18_Y372_A368T_YF] | 0.823 | 0.665 | 4.96 | 1.54 | 1.05 | 1.66 | 1.37 | 0.777 | 0.783 | 0.867 | 4.1 | 1.54 | 1.03
